Substitutions are numbered along the chain they refer to.
B1: 1EMV LA33A (protein, UniProt P13479 1-86, looked up, variant L33A)
Colicin-E9 immunity protein: MELKHSISDYTEAEFLQLVTTICNADTSSEEEAVKLVTHFEEMTEHPSGSDLIYYPKEGDDDSPSGIVNTVKQWRAANGKSGFKQG
B2: 1EMV VA68A (protein, UniProt P13479 1-86, looked up, variant V68A)
Colicin-E9 immunity protein: B1 Colicin-E9 immunity protein with A33L, V68A
B3: 1EMV YA55A (protein, UniProt P13479 1-86, looked up, variant Y55A)
Colicin-E9 immunity protein: B1 Colicin-E9 immunity protein with A33L, Y55A
B4: 1EMV VA34A (protein, UniProt P13479 1-86, looked up, variant V34A)
Colicin-E9 immunity protein: B1 Colicin-E9 immunity protein with A33L, V34A
B5: 1EMV IA53A (protein, UniProt P13479 1-86, looked up, variant I53A)
Colicin-E9 immunity protein: B1 Colicin-E9 immunity protein with A33L, I53A
B6: 1EMV YA54A (protein, UniProt P13479 1-86, looked up, variant Y54A)
Colicin-E9 immunity protein: B1 Colicin-E9 immunity protein with A33L, Y54A
B7: 1IAR IA5A (protein, UniProt P05112 25-153, looked up, variant I5A)
Interleukin-4: HKCDATLQEIIKTLNSLTEQKTLCTELTVTDIFAASKNTTEKETFCRAATVLRQFYSHHEKDTRCLGATAQQFHRHKQLIRFLKRLDRNLWGLAGLNSCPVKEANQSTLENFLERLKTIMREKYSKCSS
B8: 1IAR IA11A (protein, UniProt P05112 25-153, looked up, variant I11A)
Interleukin-4: B7 Interleukin-4 with A5I, I11A
B9: 1DAN FT50A (protein, UniProt P13726 33-251, looked up, variant F50A)
extracellular domain: SGTTNTVAAYNLTWKSTNFKTILEWEPKPVNQVYTVQISTKSGDWKSKCAYTTDTECDLTDEIVKDVKQTYLARVFSYPAGNVESTGSAGEPLYENSPEFTPYLETNLGQPTIQSFEQVGTKVNVTVEDERTLVRRNNTFLSLRDVFGKDLIYTLYYWKSSSSGKKTAKTNTNEFLIDVDKGENYCFSVQAVIPSRTVNRKSTDSPVECMGQEKGEFRE
modifications: extracellular domain
B10: 1DAN VU207A (protein, UniProt P13726 33-251, looked up, variant V207A)
extracellular domain: B9 extracellular domain with A50F, V207A
modifications: extracellular domain
B11: 1DAN VT64A (protein, UniProt P13726 33-251, looked up, variant V64A)
extracellular domain: B9 extracellular domain with A50F, V64A
modifications: extracellular domain
B12: 1DAN LU133A (protein, UniProt P13726 33-251, looked up, variant L133A)
extracellular domain: B9 extracellular domain with A50F, L133A
modifications: extracellular domain
B13: 1DAN YU94A (protein, UniProt P13726 33-251, looked up, variant Y94A)
extracellular domain: B9 extracellular domain with A50F, Y94A
modifications: extracellular domain
B14: 1DAN IU152A (protein, UniProt P13726 33-251, looked up, variant I152A)
extracellular domain: B9 extracellular domain with A50F, I152A
modifications: extracellular domain
B15: 1DAN YT78A (protein, UniProt P13726 33-251, looked up, variant Y78A)
extracellular domain: B9 extracellular domain with A50F, Y78A
modifications: extracellular domain
B16: 1DAN VU146A (protein, UniProt P13726 33-251, looked up, variant V146A)
extracellular domain: B9 extracellular domain with A50F, V146A
modifications: extracellular domain
B17: 1DAN VU179A (protein, UniProt P13726 33-251, looked up, variant V179A)
extracellular domain: B9 extracellular domain with A50F, V179A
modifications: extracellular domain
B18: 1DAN LT72A (protein, UniProt P13726 33-251, looked up, variant L72A)
extracellular domain: B9 extracellular domain with A50F, L72A
modifications: extracellular domain
B19: 1DAN YT51A (protein, UniProt P13726 33-251, looked up, variant Y51A)
extracellular domain: B9 extracellular domain with A50F, Y51A
modifications: extracellular domain
B20: 1DAN VU198A (protein, UniProt P13726 33-251, looked up, variant V198A)
extracellular domain: B9 extracellular domain with A50F, V198A
modifications: extracellular domain
B21: 1DAN YU157A (protein, UniProt P13726 33-251, looked up, variant Y157A)
extracellular domain: B9 extracellular domain with A50F, Y157A
modifications: extracellular domain
B22: 1DAN FU140A (protein, UniProt P13726 33-251, looked up, variant F140A)
extracellular domain: B9 extracellular domain with A50F, F140A
modifications: extracellular domain
B23: 1DAN FT76A (protein, UniProt P13726 33-251, looked up, variant F76A)
extracellular domain: B9 extracellular domain with A50F, F76A
modifications: extracellular domain
B24: 1DFJ WI257A (protein, UniProt P10775 1-456, looked up, variant W257A)
Ribonuclease inhibitor: MNLDIHCEQLSDARWTELLPLLQQYEVVRLDDCGLTEEHCKDIGSALRANPSLTELCLRTNELGDAGVHLVLQGLQSPTCKIQKLSLQNCSLTEAGCGVLPSTLRSLPTLRELHLSDNPLGDAGLRLLCEGLLDPQCHLEKLQLEYCRLTAASCEPLASVLRATRALKELTVSNNDIGEAGARVLGQGLADSACQLETLRLENCGLTPANCKDLCGIVASQASLRELDLGSNGLGDAGIAELCPGLLSPASRLKTLALWECDITASGCRDLCRVLQAKETLKELSLAGNKLGDEGARLLCESLLQPGCQLESLWVKSCSLTAACCQHVSLMLTQNKHLLELQLSSNKLGDSGIQELCQALSQPGTTLRVLCLGDCEVTNSGCSSLASLLLANRSLRELDLSNNCVGDPGVLQLLGSLEQPGCALEQLVLYDTYWTEEVEDRLQALEGSKPGLRVIS
B25: 1DFJ YI430A (protein, UniProt P10775 1-456, looked up, variant Y430A)
Ribonuclease inhibitor: B24 Ribonuclease inhibitor with A257W, Y430A
B26: 1DFJ YI433A (protein, UniProt P10775 1-456, looked up, variant Y433A)
Ribonuclease inhibitor: B24 Ribonuclease inhibitor with A257W, Y433A
B27: 1DFJ II455A (protein, UniProt P10775 1-456, looked up, variant I455A)
Ribonuclease inhibitor: B24 Ribonuclease inhibitor with A257W, I455A
B28: 1DAN LT59A (protein, UniProt P13726 33-295, looked up, variant L59A)
Tissue factor: SGTTNTVAAYNLTWKSTNFKTILEWEPKPVNQVYTVQISTKSGDWKSKCFYTTDTECDATDEIVKDVKQTYLARVFSYPAGNVESTGSAGEPLYENSPEFTPYLETNLGQPTIQSFEQVGTKVNVTVEDERTLVRRNNTFLSLRDVFGKDLIYTLYYWKSSSSGKKTAKTNTNEFLIDVDKGENYCFSVQAVIPSRTVNRKSTDSPVECMGQEKGEFREIFYIIGAVVFVVIILVIILAISLHKCRKAGVGQSWKENSPLNVS

Test system: PPIs of the SKEMPI data set (by PDBID)
Test: SKEMPI experimental ΔΔG, single mutations to alanine
Format: binding
Conditions: class by ΔΔG threshold 4.184 kJ/mol; ref SKEMPI

Molecule	sk_class (class of SKEMPI experimental ΔΔG)
B1	Positive (positive (a hot residue) ΔΔG ≥ 4.184 kJ/mol)
B2	Positive (positive (a hot residue) ΔΔG ≥ 4.184 kJ/mol)
B3	Positive (positive (a hot residue) ΔΔG ≥ 4.184 kJ/mol)
B4	Positive (positive (a hot residue) ΔΔG ≥ 4.184 kJ/mol)
B5	Neutral (neutral (little effect) 4.184 kJ/mol < ΔΔG > −4.184 kJ/mol)
B6	Positive (positive (a hot residue) ΔΔG ≥ 4.184 kJ/mol)
B7	Positive (positive (a hot residue) ΔΔG ≥ 4.184 kJ/mol)
B8	Neutral (neutral (little effect) 4.184 kJ/mol < ΔΔG > −4.184 kJ/mol)

Same assay, conditions: class of the SKEMPI experimental ΔΔG

Molecule	sk_class
B9	Neutral (neutral (little effect) 4.184 kJ/mol < ΔΔG > −4.184 kJ/mol)
B10	Positive (positive (a hot residue) ΔΔG ≥ 4.184 kJ/mol)
B11	Neutral (neutral (little effect) 4.184 kJ/mol < ΔΔG > −4.184 kJ/mol)
B12	Neutral (neutral (little effect) 4.184 kJ/mol < ΔΔG > −4.184 kJ/mol)
B13	Positive (positive (a hot residue) ΔΔG ≥ 4.184 kJ/mol)
B14	Neutral (neutral (little effect) 4.184 kJ/mol < ΔΔG > −4.184 kJ/mol)
B15	Neutral (neutral (little effect) 4.184 kJ/mol < ΔΔG > −4.184 kJ/mol)
B16	Neutral (neutral (little effect) 4.184 kJ/mol < ΔΔG > −4.184 kJ/mol)
B17	Neutral (neutral (little effect) 4.184 kJ/mol < ΔΔG > −4.184 kJ/mol)
B18	Neutral (neutral (little effect) 4.184 kJ/mol < ΔΔG > −4.184 kJ/mol)
B19	Neutral (neutral (little effect) 4.184 kJ/mol < ΔΔG > −4.184 kJ/mol)
B20	Neutral (neutral (little effect) 4.184 kJ/mol < ΔΔG > −4.184 kJ/mol)
B21	Neutral (neutral (little effect) 4.184 kJ/mol < ΔΔG > −4.184 kJ/mol)
B22	Positive (positive (a hot residue) ΔΔG ≥ 4.184 kJ/mol)
B23	Positive (positive (a hot residue) ΔΔG ≥ 4.184 kJ/mol)
B24	Positive (positive (a hot residue) ΔΔG ≥ 4.184 kJ/mol)
B25	Positive (positive (a hot residue) ΔΔG ≥ 4.184 kJ/mol)
B26	Positive (positive (a hot residue) ΔΔG ≥ 4.184 kJ/mol)
B27	Neutral (neutral (little effect) 4.184 kJ/mol < ΔΔG > −4.184 kJ/mol)
B28	Neutral (neutral (little effect) 4.184 kJ/mol < ΔΔG > −4.184 kJ/mol)

Test system: PPIs of the SKEMPI data set (by PDBID)
Test: not given
Conditions: single mutation to alanine, sheet sortedByGroup, r_group FAMILYVW; ref SKEMPI; cited from earlier work

Molecule	sk_ddG_kJ (SKEMPI experimental ΔΔG) [kJ]
B9	1.84
B10	6.57
B11	0.00
B12	-0.08
B13	4.31
B14	0.75
B15	2.72
B16	0.84
B17	0.46
B18	-0.25
B19	-0.54
B20	0.46
B21	0.00
B22	5.40
B23	4.81
B24	5.56
B25	24.89
B26	10.96
B27	1.38
B28	0.00

Same assay, conditions: single mutation to alanine; PPI given by PDBID; sheet sortedByGroup, r_group FAMILYVW; ref SKEMPI; cited from earlier work

Molecule	sk_ddG_kJ (SKEMPI experimental ΔΔG) [kJ]
B1	14.31
B2	7.78
B3	19.41
B4	10.79
B5	3.56
B6	20.21
B7	4.90
B8	0.29
